Test results as given in paper PMC5826585.

Target: IGF2BP2-dRRM (Homo sapiens, UniProt Q9Y6M1 158-599)
Assay: pull-down

IGF2BP2-dRRM, sequence (Q9Y6M1 158-599): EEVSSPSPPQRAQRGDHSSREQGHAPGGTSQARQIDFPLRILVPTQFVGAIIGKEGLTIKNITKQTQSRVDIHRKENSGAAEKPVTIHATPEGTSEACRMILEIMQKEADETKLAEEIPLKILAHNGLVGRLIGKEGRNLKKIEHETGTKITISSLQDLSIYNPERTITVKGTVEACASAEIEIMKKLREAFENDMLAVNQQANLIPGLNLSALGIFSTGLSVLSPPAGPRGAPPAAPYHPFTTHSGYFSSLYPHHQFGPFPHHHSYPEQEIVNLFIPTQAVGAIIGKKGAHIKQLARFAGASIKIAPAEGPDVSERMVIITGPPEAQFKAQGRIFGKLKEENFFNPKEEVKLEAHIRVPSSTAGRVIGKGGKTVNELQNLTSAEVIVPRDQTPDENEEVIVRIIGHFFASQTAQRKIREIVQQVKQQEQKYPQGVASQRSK

B1: ss-m6A (biotin) (ssRNA)
RNA: CGUCUCGGACUCGGACUGCU
modifications: m6A at positions 9 and 15
  binding result: binds
